Residue numbers refer to the chain shown, from its start. Starred links: 1 amine or outer side, 2 acyl side, 3 side chain; linkers in the order of their positions; H or OH if unused. Non-standard residues stand in square brackets, D forms with d. Groups on a side chain read outwards from the residue. No end group written: not given here. *: point of attachment. C16 diacid = O=C(O)CCCCCCCCCCCCCCC(=O)*; C15 diacid = O=C(O)CCCCCCCCCCCCCC(=O)*; γGlu = O=C(O)[C@H](CCC(=O)[*:2])N[*:1]; NMeY = CN[C@@H](Cc1ccc(O)cc1)C(=O)O; Palmitoyl = CCCCCCCCCCCCCCCC(=O)*; AEEA = NCCOCCOCC(=O)O; Aib = CC(C)(N)C(=O)O; C16 = lipid C16
T1: full-length human GIPR with an N-terminal FLAG tag, overexpressed on HEK-293T cells (human, UniProt P48546 22-466)
T1 sequence (looked up): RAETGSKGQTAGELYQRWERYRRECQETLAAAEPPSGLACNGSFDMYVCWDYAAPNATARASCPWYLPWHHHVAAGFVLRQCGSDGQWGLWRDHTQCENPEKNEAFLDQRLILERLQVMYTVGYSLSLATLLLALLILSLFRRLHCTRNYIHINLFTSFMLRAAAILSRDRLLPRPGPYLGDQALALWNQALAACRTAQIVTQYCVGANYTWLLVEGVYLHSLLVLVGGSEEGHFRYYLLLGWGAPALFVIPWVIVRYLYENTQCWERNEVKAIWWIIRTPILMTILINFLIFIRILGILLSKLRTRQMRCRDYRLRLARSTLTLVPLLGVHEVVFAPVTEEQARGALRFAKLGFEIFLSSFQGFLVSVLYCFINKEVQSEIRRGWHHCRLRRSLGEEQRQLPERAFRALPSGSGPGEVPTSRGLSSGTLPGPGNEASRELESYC

B1: Compound 185 (peptide)
peptide: Me-Y[Aib]EGTFISDYSI[Aib]LDR[Aib]KQ[Aib]DFVNWLLAQSPG-OH
modifications: not fully specified (residues 1, 18); printed as Me-Tyr-Aib-Glu-Gly-Thr-Phe-Ile-Ser-Asp-Tyr-Ser-Ile-Aib-Leu-Asp-Arg-Aib-Lys(R)-Gln-Aib-Asp-Phe-Val-Asn-Trp-Leu-Leu-Ala-Gln-Ser-Pro-Gly-OH
B2: Compound 187 (peptide)
peptide: YXEGTFISDYSIXXDRXAQXNFVNWLLAQSPSSGAPPPS
modifications: N-terminal Me (Me-Tyr1); Aib at 2, 13, 17, 20; Km = Lys(R) at 14, linker printed GS (read as G5 = GGGGG), lipid C15DA (C15 diacid); C-terminal OH
B3: Compound 182 (peptide)
peptide: YXEGTFISDYSIXXDRXAQXDFVNWLLAQSPG
modifications: N-terminal Me (Me-Tyr1); Aib at 2, 13, 17, 20; Km = Lys(R) at 14, linker printed GS (read as G5 = GGGGG), lipid C15DA (C15 diacid); C-terminal OH
B4: Compound 186 (peptide)
peptide: B3 peptide with X14L
modifications: N-terminal Me (Me-Tyr1); Aib at 2, 13, 20; Km = Lys(R) at 17, linker printed GS (read as G5 = GGGGG), lipid C15DA (C15 diacid); C-terminal OH
B5: Compound 181 (peptide)
peptide: YXEGTFISDYSIAXDRXAQXDFVNWLLAQXG
modifications: N-terminal Me (Me-Tyr1); Aib at 2, 17, 20; Km = Lys(R) at 14, linker printed GS (read as G5 = GGGGG), lipid C15DA (C15 diacid); K(Ac) (N-epsilon-acetyllysine) at 30; C-terminal OH

Molecular target: T1, full-length human GIPR with an …
Assay: cell-based or functional assay

| Binder | Human GIPR cAMP, HEK293T EC50 [nM] |
| --- | --- |
| YGEGTFISDYSIAK([AEEA-AEEA-γGlu-C16 diacid])DRIHQQNFVNWLLAQK [Compound 192] | 0.148 |
| B1 | 0.0004 |
| Y[Aib]EGTFISDYSIALDR[Aib]AQ[Aib]K([AEEA-AEEA-γGlu-γGlu-C15 diacid])FVNWLLAQKG-OH (not fully specified (residue 1)) [Compound 188] | 0.0003 |
| Me-Y[Aib]EGTFISDYSIALDR[Aib]AQ[Aib]K([AEEA-AEEA-γGlu-γGlu-C15 diacid])FVNWLLAQSPG-OH [Compound 184] | 0.0003 |
| B2 | 0.0002 |
| Me-Y[Aib]EGTFISDYSIALDR[Aib]AQ[Aib]K([2OEG-γGlu-γGlu-γGlu-C15 diacid])FVNWLLAQKG-OH [Compound 201] | 0.0002 |
| Me-Y[Aib]EGTFISDYSIALDR[Aib]AQ[Aib]K([2OEG-γGlu-γGlu-C15 diacid])FVNWLLAQKG-NH2 [Compound 205] | 0.0002 |
| B3 | 0.0002 |
| B4 | 0.0003 |
| [NMeY][Aib]EGTFISDYSI[Aib]LDR[Aib]AQ[Aib]K([AEEA-AEEA-γGlu-γGlu-Palmitoyl])FVNWLLAQRG-OH (not fully specified (N-terminus)) [Compound 203] | 0.003 |
| Me-Y[Aib]EGTFISDYSIAK([AEEA-AEEA-γGlu-C16 diacid])DRIAQ[Aib]NFVNWLLAQK [Compound 196] | 0.0002 |
| Me-Y[Aib]EGTFISDYSI[Aib]LDR[Aib]AQ[Aib]K([AEEA-AEEA-γGlu-γGlu-C15 diacid])FVNWLLAQSPG-OH [Compound 183] | 0.0005 |
| B5 | 0.0004 |
| Me-Y[Aib]EGTFISDYSIALDR[Aib]HQ[Aib]NFVNWK([γGlu-C16])LAQR-NH2 [Compound 190] | 0.0158 |

Molecular target: full-length human GLP-1R with an N-terminal FLAG tag, overexpressed on HEK-293T cells (human, UniProt P43220 24-463)
Assay: cell-based or functional assay

| Binder | Human GLP1R cAMP HEK293T EC50 [nM] |
| --- | --- |
| YGEGTFISDYSIAK([AEEA-AEEA-γGlu-C16 diacid])DRIHQQNFVNWLLAQK [Compound 192] | 741 |
| B1 | > 1000 |
| Y[Aib]EGTFISDYSIALDR[Aib]AQ[Aib]K([AEEA-AEEA-γGlu-γGlu-C15 diacid])FVNWLLAQKG-OH (not fully specified (residue 1)) [Compound 188] | 22.9 |
| Me-Y[Aib]EGTFISDYSIALDR[Aib]AQ[Aib]K([AEEA-AEEA-γGlu-γGlu-C15 diacid])FVNWLLAQSPG-OH [Compound 184] | > 1000 |
| B2 | 51.3 |
| Me-Y[Aib]EGTFISDYSIALDR[Aib]AQ[Aib]K([2OEG-γGlu-γGlu-γGlu-C15 diacid])FVNWLLAQKG-OH [Compound 201] | 9.12 |
| Me-Y[Aib]EGTFISDYSIALDR[Aib]AQ[Aib]K([2OEG-γGlu-γGlu-C15 diacid])FVNWLLAQKG-NH2 [Compound 205] | 13.5 |
| B3 | 155 |
| B4 | 26.9 |
| [NMeY][Aib]EGTFISDYSI[Aib]LDR[Aib]AQ[Aib]K([AEEA-AEEA-γGlu-γGlu-Palmitoyl])FVNWLLAQRG-OH (not fully specified (N-terminus)) [Compound 203] | 2.63 |
| Me-Y[Aib]EGTFISDYSIAK([AEEA-AEEA-γGlu-C16 diacid])DRIAQ[Aib]NFVNWLLAQK [Compound 196] | 692 |
| Me-Y[Aib]EGTFISDYSI[Aib]LDR[Aib]AQ[Aib]K([AEEA-AEEA-γGlu-γGlu-C15 diacid])FVNWLLAQSPG-OH [Compound 183] | 89.1 |
| B5 | 162 |
| Me-Y[Aib]EGTFISDYSIALDR[Aib]HQ[Aib]NFVNWK([γGlu-C16])LAQR-NH2 [Compound 190] | 1000 |

Source: US20220227830A1, “QD DOSING OF GIP RECEPTOR AGONIST PEPTIDE COMPOUNDS AND USES THEREOF” (Takeda Pharmaceutical Company Limited, priority 2020, published 2022)
